Measured values reported in the DeepSol protein solubility set.

Test: soluble on expression in E. coli; label from the status in PepcDB or PDB records

| Sequence | soluble on expression in E. coli |
| --- | --- |
| MPPYTVVYFPVRGRCAALRMLLADQGQSWKEEVVTVETWQEGSLKASCLYGQLPAFQDGDLTLYQSNTILRHLGRTLGLYGKDQQEAALVDMVNDGVEDLRCKYISLIYTNYEAGKDDYVKALPGQLKPFETLLSQNQGGKTFIVGDQISFADYNLLDLLLIHEVLAPGCLDAFPLLSAYVGRLSARPKLKAFLASPEYVNLPINGNGKQ | soluble |
| MGSDKIHHHHHHMIKSFWLENFGPISLLKADNLGKINLIIAENSKGKTFILKALYSVLKSHEEAHKGKNIRDFSEELRDKLYWTFQVEEIGDLVTRGKENPNERPLKLSMTLEDSSSVLFSFGRTTKKLIKPELYELSPRINANSIFLPPKEVLSLFDVIKKSEEEKRFGFDATYIDLVKALDIKPTKGRNYPEAAEARKDLEALFGGYVSYNDKKKAWVYEKDRQTFSINSTAEGVKKIGILDTLLGNRFLSPGSILFIDEPEANLHPKAINQFLEILFSLSKSKLGIQIFMSTHSYFVIKKLCLLARKHSESIPVFMPGKEKEQTTWVQENLQNSMPDNEIIGESIRLFREEIGVLSPETAWIG | not soluble |
| MLHILINFINFGKMFTLGNIMKFKKIYIELSDICGLKCDFCPSQKGIRGVMSEEKFQNLAYEISNKAELFTFHLLGDPLLLPNLENYLKIAKDEAMKLEITTSGFYLNSKNQALLLGYENIHQINISLMSFLSQSKISLEQYFKPILELCKKHLEQKSLSFINLRLWNLDANFKAPKSNLKIYEFLAKEFEAKIDANLSKNRLQRHILLHQNKLFKWPNLKDEPLYKKGKCHALKEQIGILSDGSLVPCCLDTKADINLGNVFENNFDKLFRSPRIKMMKKAFEEDKRIEKLCQTCEFFKARLGD | not soluble |
| MTQITKFHGVFPPVPTIVNAQGELDKVGMATLLDHLIASKVNGVLLLGSGGEFCHMTNALRLETAEFCVRHINRRIPVLLGISSTSTQEVIEYGQHADRLEVDAVLVLNPYYARLTDEYIYHHFKTVANNIKSPVILYNFPALTGQDLSVDLITRLAQDHPNIIGIKDTVDNISHIREIINNVRPVRPDFVIFSGYDEYMMDTLILGGNGGIPATANFAPQLTCGIYRAWCEKEYETMFGLQRRLSALSTIYSLDSPFFGIIKKAIQLSGVDISTHVMPPVLPANEEHISNLKQILQRAGL | not soluble |
| GSHMHAKVGDYLVVKGTTTERHDQHAEIIEVRSADGSPPYVVRWLVNGHETTVYPGSDAVVVTATEHAEAEKRAAARAGHAAT | soluble |
| MGKRLLDKLWERHVVTTNENGLDLLYIDLHLVHEVTSPQAFEGLRLTNRTVRRPDLTFATMDHNIPTKDVWNITDRIAKQQLDTLRENCKQFQVPLADIGDEEQGIVHVIGPELGLTQPGKTIVCGDSHTATHGAFGALAFGIGTSEVEHVLATQTLWQRKPKAMGIELKGKLQKGVYAKDIILHLLSKYGVAVGTGYVMEFYGETIGTMEMEERMTLCNMAIEGGAKAGIIAPDEKTFAYVKGRKYAPRDYETFEKKWFELYTDADAIYDLHISIDVTDLAPYVTWGTNPSMGVRIDEKLPEKHDVNDERAFSYMGLIPGQSTYDIPVQHVFIGSCTNSRLSDLEIAASVVKGRKVKEGVRALVVPGSKRVRDAAMQKGLHHIFEEAGFEWREPGCSMCLGMNPDQVPEGEHCASTSNRNFEGRQGKGARTHLVSPAMAAAAALYGHFVDIRKESYDGAISYS | not soluble |
| MKKFALATIFALATTSAFAGFNGNNSQGGFQQAAPAAISVKQALSAADNSMITLVGNITQQIDDDEFWFTDGTGQIKIEIKKRVWNGLNVDSKDKVKIYGKLDNEVFEKAELDVLRIEKAE | not soluble |
| SSFVGENSGVKMGSEDWEKDEPQCCLEDPAVSPLEPGPSLPAMNFVHTSPKVKNLNPKKFSIHDQDHKVLVLDSGNLIAVPDKNYIRPEIFFALASSLSSASAEKGSPILLGVSKGEFCLYCDKDKGQSHPSLQLKKEKLMKLAAQKESARRPFIFYRAQVGSWNMLESAAHPGWFICTSCNCNEPVGVTDKFENRKHIEFSFQPVCKAEMSPSEVSD | soluble |
| MGSDKIHHHHHHMRSDLRIAIVANEKRGDGNIELRLQSKGYQVVTLTTPSSVMGFIYSDPPDVILMDLSSPDEAFLGIIRSLKDDFFFSTIPVIGMMPEPAAEFFDWDEYPLDDFVTFPLNFRELFTRIVLSLRRLRRVFDNNPLTRLPGNTSIQRAIEQTVGKPMAVCYVDINHFKQYNDVYGFAHGDEVLRMLGRIMSNAVKDAGDGFAGHIGGDDFVFIVPFDQAEVVAGRIIANFTAVVSELFNEEEKRNGFFLAHDRKGNEEKVPLMGVAIAIVPTDSPKIGHYAKVAEVAAELKTLAKQSHKSCFVVDRRKY | not soluble |
| MVQWSPFVMSFKKKYPWIQLAGHAGSFKAAANGRILKKHCESEQRCLDRLMADVLRPFVPAYHGDVVKDGERYNQMDDLLADFDSPCVMDCKMGVRTYLEEELTKARKKPSLRKDMYQKMVEVDPEAPTEEEKAQRAVTKPRYMQWRETISSTATLGFRIEGIKKEDGSVNRDFKKTKTREQVTEAFREFTKGNQNILIAYRDRLKAIRATLEISPFFKCHEVIGSSLLFIHDKKEQAKVWMIDFGKTTPLPEGQTLQHDVPWQEGNREDGYLSGLDNLIDILTEMSQG | soluble |
| MSLTQGSVIFTQNRPGLDEKIFKIYKFKTMSDERDEKGELLSDELRLKAFGKIVRSLSLDELLQLFNVLKGDMSFVGPRPLLVEYLPLYNKEQKLRHKVRPGITGWAQVNGRNAISWQKKFELDVYYVKNISFLLDLKIMFLTALKVLKRSGVSKEGHVTTEKFNGKNEGHHHHHH | not soluble |
| MIGITGVTGKLGSKVAQLISEQGISARHLARNPQRAALYDNAELVQVAFENSLEAVEALKGIDVLLMVSASESPNRLQQHFAFLDAAHEAGVKHIVYTSFYNAATEATFTLARDHAKTEKYIKERGFTYTFLRDNFYLDFFLDLCLNNGEIRGPAGNGKVSAVARQDVSEVATTILAKPDKWKNQLLNMTGPADLSMADIVHFVSEQKGEIIPYIDESIEEAYASRKAWPAQDWEYDAWVSTYTAIKEGKQAGVSSDIERVLGRPATSLEQLVKTIK | not soluble |
| MSLSPAELHADSIVIDGLIIAKWNRELFEDMRKGGLTAANCTVSVWEGFQATVNNIAASNKLIRDNSDLVIPVRSTADIRKAKEQGKTGILYGFQNAHAFEDQIGYVEVFKQLGVGIVQMCYNTQNLVGTGCYERDGGLSGFGREIVAEMNRVGIMCDLSHVGSKTSEEVILESKKPVCYSHCLPSGLKEHPRNKSDEELKFIADHGGFVGVTMFAPFLKKGIDSTIDDYAEAIEYVMNIVGEDAIGIGTDFTQGHGHDFFEWLTHDKGYARRLTNFGKIVNPLGIRTVGEFPNLTETLLERGMPERVVRKVMGENWVRVLRDVEGHHHHHH | not soluble |
| MGSDKIHHHHHHMHQDTVRATAFAMPLTSPAYPVGPYRFRNREYLIITYRTDPKKLRSLVPEPLELSEPLVKFEFIRMPDSTGFGNYTESGQVIPVTFRGRKGSYTHCMFLNDHPPIAGGRELWGFPKKLATPTLRTETDTLVGTLDYGPVRVATATMGYKHEAADLSAVRSSLAEPNFLLKIIPHVDGTPRICELVEYHLEDVDLRGAWAGPASLNLWSHALAPVAELPVLEVVSAMHIVADLTLALGKVVHDYLPKSEPRDLKGRSHAFAE | not soluble |
| MGPNHPCGYLPGRDARFTYVSPAYPLSPQSYRGLLEEGFRRSGNWVYRPCCIGCSACLPVRLPVHDFRLTRSHRRVIKRNADIDIRVSVARFDERQFQLYVRYLAARHPTDTPVSRDDYWSFVSSSWAQTRFVEFRSYSELIGVAVVDHVPGALSAVYTFFDPDAAERSPGSLAILWQILEARRLGREWLYLGYWIGGCRKMEYKARYRPLEALIANRWRRFQVDEPLTSSVLLEHHHHHH | soluble |
| MGSSQSTPKVQDANADAERIRKAQHSMAAAGGGSQCPLTPEQRAAASGENCGAGGACPVGADKASINPLNNELEHPNQKPAPDQPFALPTKREKSTIPKAGTETETWTYPSPQMFWNAMLKKGWRWQDDSLSKSDMENIISIHNANNEEAWREVLKWENLLHPECAEPKLKSFKGDAKNLSPRARFRNLFLGYDLPFDRHDWIVDRCGTKQVQYVIDYYDGGAVDPSSKLFTILDVRPAVNDIGNIWDRMVVAYWRFKFETLGFTPSLPIPPTEGHNVNH | not soluble |
| MSLNPLKCAVIGVGYLGKFHAEKYAALPGCELVAVVDADPVTAAEIGDRLGVRGLTDHRALLGKVDAVSVVVPTSLHHRVARDFLEAGAHVLVEKPITVTVEEADELIRIAKEKQRVLMVGHLERFNAAVLGLDLDHHKPLFIESHRLAPFKPRANDVSVVLDLMIHDIDIILDMVDSEVERIDAKGVAVLTGDIDIANARLQFKSGCVANVTASRVSLKVERKMRMFMPNAYVSVDFQNRVLARHRKGEGEMFPGVPEILSEESVFENGDALMEEIRHFLDCIREHREPLVSGAAGRRALATAIEITNLLKVQESRSEGHHHHHH | soluble |
| MYYGALSIRAEAWLIVSPEVTKIMAKEQTDRTTLDLFAHERRPGRPKTNPLSRDEQLRINKRNQLKRDKVRGLKRVELKLNAEAVEALNELAESRNMSRSELIEEMLMQQLAALRSQGIV | not soluble |
| MPKPYVAINMAELKNEPKTFEMFASVGPKVCMVTARHPGFVGFQNHIQIGILPFGNRYGGAKMDMTKESSTVRVLQYTFWKDWKDHEEMHRQNWSYLFRLCYSCASQMIWGPWEPIYEIIYANMPINTEMTDFTAVVGKKFAEGKPLDIPVISQPYGKRVVAFAEHSVIPGKEKQFEDAIVRTLEMLKKAPGFLGAMVLKEIGVSGIGSMQFGAKGFHQVLENPGSLEPDPNNVMYSVPEAKNTPQQYIVHVEWANTDALMFGMGRVLLYPELRQVHDEVLDTLVYGPYIRILNPMMEGTFWREYLNEQAWRHPQFGG | soluble |
| MKKVLFLLFLVFSFGVYSATFSDSDKKEILKQFSEFQKAVKKKDAAAVSRYISYPLKEGNTKEVIWKNSSELAKDLKDKETYTFYSINELKIDSNANKIINVEERLLEKNGEFGDEFLSVTGRFLDTDDVEGTIYTGIDKPHFVVAVSVYDDMFEGGTYYLFSFENKKLELVSIFRLP | not soluble |
| MTTDIRPLLVELFTEELPPKALQKLGQAFAEGVRATLARHHLLADGCAVEPFATPRRLAVRLSAVLAQAPEQAYAEKLMPVKVGLDANGQPTAALAKKLAAKGLEGLDPATLERESDGKQEYLVARGTAAGAQLAVGLQEGLDAAIDGLPIPKVMRYQLADGQTTVKFVRPAHGLVALFGADIVPIAALGLQAGRATQGHRFQSNGAIELATAQGYEADLAERGRVIASFEARRAEISRLLDEHAQRLGATLGDDPEVTALLDEVTALVEHPTVYVGQFEEQFLQVPQECLILTMRLNQKYFPLFDPASGKLTHRFLIVSNMQVADPANIVEGNQRVVRPRLADAQFFFETDRKTPLAARVEQLGSIVYHNKLSTQLERVERVRAIARGIATALGGDAAHCDRAALLAKADLGSNMVGEFPELQGIMGAYYAQGDGEPADVVTALRTQYRNRYDAPVDAATLTAATLFIAERIETLVGIWSIGLAPTGERDPFGLRRAALGLISAFEQLAAGGWLKVSEDGPLSLDGLLALAAQAFPDGKIGADTLAEVRAFIYERYRNQLIGEHDRNAVEAVIALAPPL | not soluble |
| MSEDELIIIENLKKIYKIKNVEFPALRGINLKIYKGEFLGIAGPSGSGKTTLLDMIGLLDSPTEGKIIIDKKDVTKFDEDKRAIFRRKNIGFVFQSYNLISYLTVLENVELALAAAGYPVSKRKAKAEEILSMIPGMLELKNKKPNELSAGQQQRVAIARALANDPKILIADEPTANLDSKTGEAIVELLRKLNEEKGVTIVMATHDPMMMKYVDRLVYIRDGLIEKEVIQK | soluble |
